Reference: paper PMC2667179

Target: sucrose synthase (Nicotiana tabacum (endogenous in BY-2 cells))
Experiment: native gel or EMSA; two-dimensional blue native PAGE (4-14.5% gradient, 4°C) then SDS-PAGE of BY-2 plasma membrane proteins solubilized with 1% n-octyl-beta-D-glucopyranoside (750 mM amino caproic acid, 100 mM BisTris pH 7.0); subunits detected by immunoblotting on separate blots; association judged by comigration

sucrose synthase (enzyme)
stoichiometry N: 4
